Results taken from US11160869B2 (priority 2019, dated 2021).

Assays:
plasma cytokines = assay: MSD V-plex Proinflammatory Panel 1 plasma cytokines, oxazolone colitis (Example 14); format: in vivo, mice; details: 8.45 mg/kg
Excerpt: Plasma cytokines were quantified using the V-plex Proinflammatory Panel 1 Mouse Kit. Plasma IL-1Ra was quantitated by sandwich immunoassay using an antibody pair from the Mouse IL-1Ra/IL-1F3 DuoSet ELISA (R&D Systems #DY480), Streptavidin SULFO-TAG Labeled (MSD #R32AD-1), Multi-Array 96 Plate Pack, SECTOR Plate MSD #L15XA-3 and Read Buffer T (4×) (MSD #R92TC-2). Samples were read on the QuickPlex SQ 120 plate reader (Meso Scale Discovery, Rockville, Md.).

IL-1Ra = assay: Single oral capsule dose in NHP: plasma IL-1Ra; format: in vivo, Macaca fascicularis
Protocol: The purpose of the IL-1Ra assay was to measure endogenous IL-1Ra in NHP plasma. The antibody pair in this sandwich immunoassay reacted with both human and NHP IL-1Ra. Samples were quantitated using an 8-point standard curve prepared from a human IL-1Ra calibrator (ranging from 5.5-4021 pg/mL, plus 0 pg/mL). Biotinylated anti-NHP IL-1Ra capture antibody was added to a MSD Small Spot Streptavidin plate and incubated for an hour at RT with shaking. Controls that represent low ([…]), mid ([…]) and high concentrations (3245 pg/mL) were prepared in pooled plasma, Standards (Calibrator 9 Blend) were prepared in Diluent 43 (MSD Cat No R50AG), and samples diluted 10 fold in Diluent 43. Standards, controls and diluted samples were added to the assay plate, and the plate incubated for 2 hours at room temperature with shaking. The plate was washed 3 times with PBST, and 1× SULFO TAG anti-IL-1Ra Antibody added to the plate. The plate was incubated for 1 hour at room temperature with shaking. Following a wash step, 2×MSD Read buffer was added to the wells of the plate, and the plate read using the MSD Sector Imager 600 plate reader. The lower limit of detection of each analyte is defined as 2.5 standard deviation above background.
IL-10 delivery construct dosing at multiple fixed doses in non-naïve adult male Macaca fascicularis was conducted by Valley Biosystems (West Sacramento, Calif.). […] Dosing groups are described in TABLE 45.

[1] = system: cells of the lamina propria (LAMP1, CD11c, CD19, CD34, CD3); assay: Cell targeting in the lamina propria after intraluminal injection, immunofluorescence; format: in vivo, Wistar rats
Protocol: Rats were anesthetized using inhaled isoflurane and euthanized by inhaled CO2.
Experiments were initiated by making an approximately 4 cm abdominal incision to access the mid-jejunum region of the small intestine. After performing the incision, 50 μl of a prepared solution of the IL-10 delivery construct (typically at about 1 mg/mL) was injected into the intestinal lumen of an area devoid of foodstuffs through a 27-gauge needle using a 1 mL syringe. The mesentery adjacent to the site of injection was labeled with a marker and the intestine was returned to the abdominal cavity, with the incision being closed with clamps.
At specific times, the injected intestine was retrieved, surgically isolated and flushed with a 4° C. isotonic PBS. Washed, excised samples were fixed (4% paraformaldehyde in PBS) overnight at 4° C. before dehydration through graded series of ethanol/water solutions and overnight incubation in chloroform.
Dehydrated tissues were immersed in wax, sectioned, and mounted on poylysine slides and processed for antigen retrieval using sodium citrate. Afterward, sections were permeabilised with 0.2% Triton-X100 in PBS prior to thrice washing in PBS and blocking with 2% BSA+2% serum of the animal the secondary antibodies have been raised. Primary antibodies were diluted in 1% BSA, 0.1% Triton-X100 in PBS and incubated overnight at 4° C. in humidified air. Fluorescent secondary antibodies were diluted in 1% BSA, 0.1% Triton-X100 in PBS and incubated for 2 h at RT prior to processing for confocal microscopy. On occasion, an approximately 1 cm section of intestine at the injection site was collected for biochemical studies.
Proteins for specific cell types were examined by immuno-fluorescence using confocal microscopy. The IL-10 delivery construct components (the carrier, also referred to herein as “cholix,” and IL-10) were followed separately with either a polyclonal antibody (pAb) or monoclonal antibody (mAb) to IL-10 or a pAb or mAb to the carrier domain to allow co-localization with pAb or mAbs available (TABLE 46).

[2] = Intraluminal injection in T-cell transfer model: rhIL-10 ELISA in intestinal tissue and serum; format: in vivo, BALB/c and SCID mice
Protocol: This study was conducted to examine the potential for the carrier protein to transport rhIL-10 from the intestinal lumen into the submucosal region in inflamed intestinal tissue. The T lymphocyte (T cell) transfer model was used as it is a well-established model of induced chronic colitis in mice and presents many of the essential immunological hallmarks observed in IBD patients. Nine BALB/c mice and twelve SCID mice, including nine with the colitis-like model of inflammation, were dosed with 20 μl of test article via intraluminal injection into the distal ileum and the proximal, middle and distal colon. […] In each group, two mice were terminated 10 minutes after intraluminal injections, and one was terminated 40 minutes after intraluminal injections. Intestinal tissue and serum were collected. Collected tissue was fixed, embedded, sectioned and H&E stained for histological assessment of inflammatory status. ELISA analysis to measure rhIL 10 was performed on lysates prepared from intestinal tissue and serum (FIGS. 106A-106D).

[3] = system: enterocytes and lamina propria cells; assay: Vesicular trafficking during apical to basal transcytosis (Rab7, Rab11, LMAN1, LAMP1), rat jejunum; format: in vivo
Protocol: Immunofluorescence microscopy images of rat jejunum were obtained following a 50 uL intraluminal injection of an IL-10 delivery construct prepared in PBS at ˜40 uM. For FIGS. 129-133: arrow=apical (luminal) epithelial membrane; dashed line=epithelial cell-basement membrane demarcation; 1-p=lamina propria; G=goblet cell. Cell nuclei stained with DAPI (blue).
The timing of LMAN1 redistribution to the basal compartment coincides with the presence of hIL-10 being ultimately detected in non-polarized cells within the lamina propria where it was not associated with LMAN1.
Ultimately, the delivery construct is delivered to lysosome-like structures within a large fraction of cells within the lamina propria, an outcome that would limit its systemic distribution following A-B transcytosis.

[4] = system: human peripheral blood mononuclear cells (PBMCs); assay: LPS-induced TNFα, IL-6 and HLA-DR in PBMC monocytes, flow cytometry; details: pre-treatment

B1: IL-10 delivery construct: recombinant homodimeric fusion protein: N-terminal methionine, cholix386 domain, polyGlySer spacer, recombinant human IL-10 (protein)
chain: MVEEALNIFDECRSPCSLTPEPGKPIQSKLSIPSDVVLDEGVLYYSMTINDEQNDIKDEDKGESIITIGEFATVRATRHYVNQDAPFGVIHLDITTENGTKTYSYNRKEGEFAINWLVPIGEDSPASIKISVDELDQQRNIIEVPKLYSIDLDNQTLEQWKTQGNVSFSVTRPEHNIAISWPSVSYKAAQKEGSRHKRWAHWHTGLALCWLVPMDAIYNYITQQNCTLGDNWFGGSYETVAGTPKVITVKQGIEQKPVEQRIHFSKGNAMSALAAHRVCGVPLETLARSRKPRDLTDDLSCAYQAQNIVSLFVATRILFSHLDSVFTLNLDEQEPEVAERLSDLRRINENNPGMVTQVLTVARQIYNDYVTHHPGLTPEQTSAGAQAGGGGSGGGGSGGGGSPGQGTQSENSCTHFPGNLPNMLRDLRDAFSRVKTFFQMKDQLDNLLLKESLLEDFKGYLGCQALSEMIQFYLEEVMPQAENQDPDIKAHVNSLGENLKTLRLRLRRCHRFLPCENKSKAVEQVKNAFNKLQEKGIYKAMSEFDIFINYIEAYMTMKIRN
modifications: homodimer
Plasma cytokines
  suppression of induction of IL-4 (trend): 62%
  suppression of induction of IL-6 (trend): 61%
  suppression of induction of IL-12p70 (trend): 65%
  suppression of induction of KC/GRO (trend): 51%
Plasma cytokines; p<0.05
  plasma expression of IL-10 and IL-2 relative to Vehicle: significantly reduced
IL-1Ra; 82 mg, oral
  plasma IL-1Ra Cmax: 26,367 pg/mL
  time of plasma IL-1Ra Cmax: 3 hours post-dose
IL-1Ra; all dose groups
  time by which plasma IL-1Ra returned to baseline: ≤ 24 h
IL-1Ra; compared with intravenous administration
  plasma IL-1Ra and IFN-γ after oral enteric-coated capsules: increased IL-1Ra without significant induction of IFN-γ
[1]; 1-minute pulse, intraluminal injection
  time by which an extensive amount reached the lamina propria: ≤ 15 min
[1]; 15-minute time course
  co-localization with LAMP1-positive lysosomes in enterocytes: little or no co-localization
[1]; lamina propria
  co-localization with CD3 antigen (T lymphocytes): striking co-localizations
  co-localization with CD19-positive cells (B-lymphocytes): failed to co-localize
  co-localization with CD34-positive cells (endothelia): failed to co-localize
[1]; rat jejunum lamina propria
  co-localization with CD11c (dendritic cells): did not co-localize with CD11c antigen to any striking extent
[2]; 159 pmoles
  rhIL-10 levels in inflamed tissue relative to rhIL-10 alone: approximately 10 fold higher
  uptake in normal intestinal tissues compared to rhIL-10 alone: two- to five-fold higher
[2]; 159 pmoles, 10-minute exposure
  rhIL-10 in intestinal tissue compared to rhIL-10 alone: substantially higher
[2]; intraluminal injection
  rhIL-10 in serum of healthy animals: moderately high rhIL-10 detected
  rhIL-10 in serum of inflamed animals: minimal amounts of rhIL-10 were detected
[3]; 1-15 min
  co-localization with LMAN1: co-localized with redistributing LMAN1
[3]; 1 min post ILI, not increasing over 15 min
  co-localization with LAMP1 in polarized enterocytes: Limited LAMP1/delivery construct co-localizations
[3]; 10 min and 15 min post ILI
  co-localization with LAMP1 in non-polarized cells within the lamina propria: extensive LAMP1/delivery construct co-localizations
[3]; rat, in vivo
  co-localization with Rab7+ vesicles in enterocytes: predominantly in the apical vesicular compartment
  co-localization with Rab11+ vesicles in enterocytes: mostly in the basal vesicular compartment
  time course of completion of A-B transcytosis: 10 to 15 min
[4]
  LPS-induced secreted TNFα: dose-dependent reduction
  LPS-induced surface expression of HLA-DR: dose-dependent reduction
